{"source": "paper PMC5110560", "about": "“A Wheat Cinnamyl Alcohol Dehydrogenase TaCAD12 Contributes to Host Resistance to the Sharp Eyespot Disease” (Frontiers in Plant Science, 2016)", "key": {"[1]": {"substrate": "COc1cc(/C=C/C=O)cc(OC)c1O", "test": "purified protein", "format": "biochemical, Triticum aestivum", "settings": "NADPH as co-substrate; GST fusion"}, "[2]": {"substrate": "COc1cc(/C=C/C=O)ccc1O", "test": "purified protein", "format": "biochemical, Triticum aestivum", "settings": "NADPH as co-substrate; GST fusion"}}, "data": [{"protein": "TaCAD12 (GST-TaCAD12) (Triticum aestivum) (protein, N-terminal GST fusion (pGEX-4T-1), expressed in E. coli BL21, purified; tag kept) MAPTATAAEQSQQHTKKAVGLAALDASGHLSPLAITRRSTGDDDVVIKILYCGICHSDLHSIKNDWKNAKYPMIPGHEIAGEVTEVGKNVTKFKAGDRVGVGCMVNSCQSCESCDKGFENHCPGMIFTYNSVDRDGTRTHGGYSSMVVVHERFVVRFPDAMPLDKGAPLLCAGITVYSPMKYHGLNAPGMHLGVLGLGGLGHVAVKFGKAFGMKVTVISSSPGKKQEALERLGADAFVVSKDADEMKATMSTMDGIINTVSANVPMAPLFGLLKPNGKMIMVGLPEKPIEVPPFALVARNKTLAGSCIGGMRDTQEMLDLAAKHGVTADIEVIGAEYVNTAMERLAKADVRYRFVIDIANTLDKAAAATTE", "values": [{"measurement": "Km", "setting": "[1]", "result": "34.18 ± 5.56", "unit": "µM"}, {"measurement": "Km", "setting": "[2]", "result": "28.91 ± 3.67", "unit": "µM"}]}]}
